Assay results taken from patent US20240376214A1, “ANTI-C-MET ANTIBODIES AND ANTIBODY-DRUG CONJUGATES” (BYONDIS B.V., priority 2021, published 2024).

B1: mAb3b (antibody, human IgG1, kappa, V domains shown)
VH: QVQLVQSGAEVKKPGASVKVSCKASGYTFTDYYLNWVRQACGQGLEWMGLIFPGNDKTEYSEKFKGRVTLTTDTSISTAYMELSSLTSDDTALYYCSGGDYGGFVYWGQGTLVTVSS
VL: DIQMTQSPSSLSASVGDRVTISCGASENIYGALNWYQQQPGKAPKVLIFGATNLADGVPSRFSGSGSGTDFTLTISSLQPEDFATYYCQNVLSSPLTFGQGTKLEIKR
notes: Humanized IgG1 kappa, HC-41C, from wt/41C-chi-mAb3; also called humanized HC-41C antibody mAb3b
B2: mAb3b: HC-41C humanized anti-c-Met antibody, VH SEQ ID NO:16, VL SEQ ID NO:20 (antibody, V domains shown)
VH: B1 VH
VL: DIQMTQSPSSLSASVGDRVTISCGASENIYGALNWYQQQPGKAPKVLIFGATNLADGVPSRFSGSGSGTDFTLTISSLQPEDFATYYCQNVLSSPLTFGQGTKLEIK
modifications: humanized HCVR; humanized LCVR

What was measured:
[1] = target: T1, rhesus c-Met on 4MBr-5 cells (rhesus, UniProt F7H1K4 25-1381, Natural c-Met is cleaved at the furin site (KRKKR/S) into disulphide-linked alpha and beta subunits; given here as one mature polypeptide.); experiment: flow cytometry, 4MBr-5 cells; EC50 with 50 ng/mL HGF against EC50 without HGF
T1 construct: also called rhesus c-Met antigen
T1 sequence (F7H1K4 entry or part of it limits assumed): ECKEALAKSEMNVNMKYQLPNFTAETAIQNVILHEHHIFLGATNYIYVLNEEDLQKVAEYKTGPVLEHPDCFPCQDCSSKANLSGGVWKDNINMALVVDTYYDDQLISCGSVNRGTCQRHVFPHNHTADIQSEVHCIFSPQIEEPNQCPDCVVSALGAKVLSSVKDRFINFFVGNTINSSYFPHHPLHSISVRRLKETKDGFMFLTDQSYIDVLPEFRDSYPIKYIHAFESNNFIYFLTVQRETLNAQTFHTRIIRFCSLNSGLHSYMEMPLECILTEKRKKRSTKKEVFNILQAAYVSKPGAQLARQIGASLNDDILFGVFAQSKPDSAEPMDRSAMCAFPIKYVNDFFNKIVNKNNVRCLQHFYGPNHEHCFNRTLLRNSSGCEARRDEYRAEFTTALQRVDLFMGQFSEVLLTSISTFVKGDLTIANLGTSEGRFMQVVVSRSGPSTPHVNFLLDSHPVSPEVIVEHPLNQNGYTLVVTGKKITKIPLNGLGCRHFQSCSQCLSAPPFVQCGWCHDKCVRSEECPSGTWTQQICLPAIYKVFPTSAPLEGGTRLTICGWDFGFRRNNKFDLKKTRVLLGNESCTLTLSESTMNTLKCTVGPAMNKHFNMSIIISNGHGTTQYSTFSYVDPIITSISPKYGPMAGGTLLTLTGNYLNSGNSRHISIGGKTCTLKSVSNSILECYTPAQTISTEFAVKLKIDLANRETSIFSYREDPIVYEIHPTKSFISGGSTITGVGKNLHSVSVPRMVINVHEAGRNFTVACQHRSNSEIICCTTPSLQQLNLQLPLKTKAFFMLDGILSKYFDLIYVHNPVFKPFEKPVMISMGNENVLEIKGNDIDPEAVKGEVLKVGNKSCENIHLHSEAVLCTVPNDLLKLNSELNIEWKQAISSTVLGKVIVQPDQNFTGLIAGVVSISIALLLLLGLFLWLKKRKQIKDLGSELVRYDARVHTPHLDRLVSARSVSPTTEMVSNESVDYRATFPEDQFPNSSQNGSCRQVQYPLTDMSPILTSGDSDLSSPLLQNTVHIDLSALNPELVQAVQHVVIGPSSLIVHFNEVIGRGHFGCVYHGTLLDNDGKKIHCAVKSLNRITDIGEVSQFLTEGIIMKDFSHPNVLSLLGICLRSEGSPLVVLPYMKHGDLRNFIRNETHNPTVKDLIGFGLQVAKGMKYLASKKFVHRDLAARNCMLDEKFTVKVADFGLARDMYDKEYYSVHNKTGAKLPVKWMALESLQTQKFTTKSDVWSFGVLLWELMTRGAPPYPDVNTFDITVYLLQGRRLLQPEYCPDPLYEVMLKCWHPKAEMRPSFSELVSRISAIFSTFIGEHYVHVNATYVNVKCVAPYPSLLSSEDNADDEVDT
Experimental: (§1) Cellular binding of the in total 75 humanized anti-c-Met antibodies (originating from the three selected chimeric antibodies) was studied in human c-Met-positive tumor cell lines MKN45, NCI-H596 and PC-3, rhesus c-Met-positive tumor cell line 4 MBr-5, and human c-Met-negative tumor cell line MDA-MB-175-VII. Cells were used around 90% of confluence at the time of an assay, detached with Trypsin-Versene (EDTA) (Lonza) for 5-10 minutes, washed and adjusted to a concentration of 1×10⁶ cells/mL in ice-cold FACS buffer (PBS 1×, 0.1% v/w BSA, 0.02% v/v sodium azide (NaN₃)). Staining was performed in 96-well round-bottomed microtiter plates using ice-cold reagents/solutions at 4° C. to prevent the modulation and internalization of surface antigens. 100,000 cells/well were added to 96-well plates (100 μL/well) and centrifuged at 300×g for 3 minutes. In case of pre-incubation with HGF, the cells were resuspended in 50 ng/mL recombinant human HGF in FACS buffer (50 μL/well) and incubated for 30 minutes at 4° C., followed by two wash steps with 150 μL FACS buffer. Supernatant was discarded and cells were stained for 30 minutes with 50 μL of each antibody. Serial dilutions were made in ice-cold FACS buffer. Cells were washed twice by centrifugation at 300×g for 3 minutes and resuspended in 50 μL 6000-times diluted secondary F(ab′)₂ goat anti-human IgG (Fc fragment specific) antibody APC-conjugated (Jackson ImmunoResearch). Following a 30-minute incubation on ice, cells were washed again 2 times and resuspended in 150 μL ice-cold FACS buffer for FACS analysis. For analysis of the data, the Median Fluorescence Intensity (MFI) values were obtained.

[2] = target: T1, rhesus c-Met on 4MBr-5 cells; experiment: flow cytometry, 4MBr-5 cells pre-incubated with 50 ng/mL HGF
Experimental: as §1

[3] = target: T2, human c-Met (HGFR), full length, on the cell surface (human, UniProt P08581 25-1390); experiment: flow cytometry, NCI-H596 cells; EC50 with 50 ng/mL HGF against EC50 without HGF
T2 construct: Endogenous c-Met on human tumor cell lines MKN45, NCI-H596, PC-3 and HepG2; also called hepatocyte growth factor receptor; mesenchymal-epithelial transition factor
T2 sequence (P08581 25-1390 limits assumed): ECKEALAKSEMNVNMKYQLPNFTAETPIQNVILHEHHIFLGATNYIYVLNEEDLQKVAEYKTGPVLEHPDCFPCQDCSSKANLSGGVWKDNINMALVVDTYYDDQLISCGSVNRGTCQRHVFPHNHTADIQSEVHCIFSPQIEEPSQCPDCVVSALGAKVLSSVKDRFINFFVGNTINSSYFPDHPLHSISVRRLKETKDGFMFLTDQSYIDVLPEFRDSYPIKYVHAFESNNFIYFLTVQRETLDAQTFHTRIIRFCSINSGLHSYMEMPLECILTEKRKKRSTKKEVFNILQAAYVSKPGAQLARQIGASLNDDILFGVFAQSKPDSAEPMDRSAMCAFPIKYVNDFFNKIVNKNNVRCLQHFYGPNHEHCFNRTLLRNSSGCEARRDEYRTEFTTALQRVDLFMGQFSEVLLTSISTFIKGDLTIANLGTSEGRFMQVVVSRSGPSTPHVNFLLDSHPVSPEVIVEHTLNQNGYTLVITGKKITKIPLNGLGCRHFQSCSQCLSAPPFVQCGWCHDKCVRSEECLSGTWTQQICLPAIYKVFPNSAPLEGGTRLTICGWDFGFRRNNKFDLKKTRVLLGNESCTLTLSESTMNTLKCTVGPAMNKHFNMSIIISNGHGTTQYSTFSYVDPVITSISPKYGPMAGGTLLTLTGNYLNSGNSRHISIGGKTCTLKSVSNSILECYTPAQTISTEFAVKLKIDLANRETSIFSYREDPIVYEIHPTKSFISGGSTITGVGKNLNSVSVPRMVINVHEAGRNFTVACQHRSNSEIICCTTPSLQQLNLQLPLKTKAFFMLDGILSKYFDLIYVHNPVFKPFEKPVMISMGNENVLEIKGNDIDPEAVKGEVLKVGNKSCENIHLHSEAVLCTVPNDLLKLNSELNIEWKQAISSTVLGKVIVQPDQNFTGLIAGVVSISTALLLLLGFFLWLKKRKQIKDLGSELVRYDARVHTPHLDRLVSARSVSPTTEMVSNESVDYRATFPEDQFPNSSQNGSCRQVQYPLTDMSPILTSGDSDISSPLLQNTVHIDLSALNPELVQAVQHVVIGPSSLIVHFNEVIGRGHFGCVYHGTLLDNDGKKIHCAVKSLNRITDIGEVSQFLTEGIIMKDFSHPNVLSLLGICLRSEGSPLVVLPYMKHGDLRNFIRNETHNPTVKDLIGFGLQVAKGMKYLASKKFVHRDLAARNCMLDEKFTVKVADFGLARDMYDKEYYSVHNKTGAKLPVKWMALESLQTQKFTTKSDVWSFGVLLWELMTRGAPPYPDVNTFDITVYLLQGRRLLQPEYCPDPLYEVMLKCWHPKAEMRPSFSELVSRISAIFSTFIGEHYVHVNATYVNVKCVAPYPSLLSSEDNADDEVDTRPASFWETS
Experimental: as §1

[4] = target: T2, human c-Met (HGFR), full length, on the …; experiment: flow cytometry, PC-3 cells; EC50 with 50 ng/mL HGF against EC50 without HGF
Experimental: as §1

[5] = target: T2, human c-Met (HGFR), full length, on the …; experiment: cell binding on c-Met positive MKN45 cells, fluorescence readout RFU (R-PE), mean ± S.E.M. of two experiments in duplicate
[6] = target: T3, biotinylated human c-Met extracellular domain (human, UniProt P08581 25-932, biotinylated (site not stated)); experiment: SPR (Biacore T200, 37 C), biotinylated c-Met captured on CAP chip, mAb3b as analyte, 1:1 Langmuir fit; KD-obs
T3 construct: also called Human c-Met ECD
T3 sequence (P08581 25-932 limits assumed): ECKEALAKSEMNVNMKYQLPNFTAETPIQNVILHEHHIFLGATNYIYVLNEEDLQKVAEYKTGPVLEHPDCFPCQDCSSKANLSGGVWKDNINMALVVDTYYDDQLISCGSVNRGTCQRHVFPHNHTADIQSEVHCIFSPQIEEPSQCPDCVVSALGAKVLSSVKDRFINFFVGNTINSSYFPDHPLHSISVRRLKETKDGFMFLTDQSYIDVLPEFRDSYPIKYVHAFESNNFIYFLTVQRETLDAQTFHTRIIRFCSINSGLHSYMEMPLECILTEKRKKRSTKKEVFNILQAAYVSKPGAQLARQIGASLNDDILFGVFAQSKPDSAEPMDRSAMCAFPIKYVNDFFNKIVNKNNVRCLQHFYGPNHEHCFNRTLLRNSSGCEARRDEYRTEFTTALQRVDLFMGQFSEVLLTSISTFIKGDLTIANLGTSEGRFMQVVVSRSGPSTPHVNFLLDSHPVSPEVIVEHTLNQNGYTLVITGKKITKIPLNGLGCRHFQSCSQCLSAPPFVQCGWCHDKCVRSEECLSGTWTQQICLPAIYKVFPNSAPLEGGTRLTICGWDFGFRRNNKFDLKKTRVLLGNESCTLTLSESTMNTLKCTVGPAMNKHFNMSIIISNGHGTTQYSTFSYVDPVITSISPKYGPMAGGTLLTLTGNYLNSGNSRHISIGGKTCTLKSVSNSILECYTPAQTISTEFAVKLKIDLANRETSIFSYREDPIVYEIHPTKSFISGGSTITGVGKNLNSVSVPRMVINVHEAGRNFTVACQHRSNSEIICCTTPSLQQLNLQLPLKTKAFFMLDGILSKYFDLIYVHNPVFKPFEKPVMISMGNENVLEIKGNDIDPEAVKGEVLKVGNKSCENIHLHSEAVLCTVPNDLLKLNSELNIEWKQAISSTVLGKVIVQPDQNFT
Experimental: (§2) Binding analysis was performed on a Surface Plasmon Resonance instrument (Biacore© T200 system, GE Life Sciences) at 37° C. Biotinylated human or cyno c-Met was captured on the surface of a CAPchip made suitable for capture of biotinylated molecules (Sensor Chip CAP, GE Life Sciences) by injection of Biotin Capture reagent for 300 seconds at 2 μL/min on flow cell 1 and 2. A dilution of the biotinylated c-Met antigen in running buffer (10 mM HEPES buffer at 25° C., pH 7.4 with 150 mM NaCl, 3 mM EDTA and 0.005% v/v polyoxyethylene (20) sorbitan monolaurate (Surfactant P20) was injected at variable contact times to obtain different capture levels at 5 μL/min. The dilution and contact time for c-Met variant was estimated with the aim for a capture level around 20 RU. After a one-minute baseline, the mAb3b sample was injected in five increasing concentrations (0.037, 0.11, 0.33, 1 and 3 nM) at […] for 60 seconds with a 900-second dissociation time. The Rₘₐₓ for the interactions was between 5-10 RU. Regeneration was performed with 6 M guanidine-HCl, 0.25 M NaOH solution (120 seconds with flow rate of […]). […] The sensorgrams were fitted to a 1:1 Langmuir binding model and subsequently evaluated for the goodness of the fit (chi2), the uniqueness of the fit (U-value) and by visual inspection and biological relevance.

[7] = target: T4, biotinylated cynomolgus c-Met extracellular domain (cynomolgus, UniProt A0M8R7 25-932 (Papio anubis entry), biotinylated (site not stated)); experiment: as above
T4 construct: also called Cyno c-Met ECD
T4 sequence (A0M8R7 25-932 S170N/I621T limits assumed): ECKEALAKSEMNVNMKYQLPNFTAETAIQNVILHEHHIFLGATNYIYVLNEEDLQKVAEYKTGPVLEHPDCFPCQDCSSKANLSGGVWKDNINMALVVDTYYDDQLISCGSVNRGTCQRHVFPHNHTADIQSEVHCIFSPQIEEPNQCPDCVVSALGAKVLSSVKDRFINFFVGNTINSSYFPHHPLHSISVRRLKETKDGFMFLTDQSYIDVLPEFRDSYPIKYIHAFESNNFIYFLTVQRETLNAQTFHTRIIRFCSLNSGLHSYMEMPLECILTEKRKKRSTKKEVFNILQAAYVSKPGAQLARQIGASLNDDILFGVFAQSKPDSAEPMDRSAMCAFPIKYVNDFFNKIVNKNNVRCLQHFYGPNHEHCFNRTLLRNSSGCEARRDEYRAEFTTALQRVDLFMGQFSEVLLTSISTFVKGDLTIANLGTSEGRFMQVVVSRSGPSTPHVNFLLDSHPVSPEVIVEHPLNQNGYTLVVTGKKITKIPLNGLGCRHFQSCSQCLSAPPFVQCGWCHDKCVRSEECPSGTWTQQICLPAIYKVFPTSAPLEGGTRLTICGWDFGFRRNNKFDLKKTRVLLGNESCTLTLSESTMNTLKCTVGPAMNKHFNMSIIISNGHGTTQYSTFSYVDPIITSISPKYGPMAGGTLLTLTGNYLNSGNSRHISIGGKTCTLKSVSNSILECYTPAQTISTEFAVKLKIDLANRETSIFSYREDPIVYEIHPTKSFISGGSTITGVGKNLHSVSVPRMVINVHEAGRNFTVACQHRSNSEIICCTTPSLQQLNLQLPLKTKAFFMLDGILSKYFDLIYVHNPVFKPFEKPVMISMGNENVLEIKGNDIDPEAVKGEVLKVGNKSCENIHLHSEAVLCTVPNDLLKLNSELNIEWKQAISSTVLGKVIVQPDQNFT
Experimental: as §2

[8] = target: T2, human c-Met (HGFR), full length, on the …; experiment: flow cytometry, NCI-H596 cells pre-incubated with 50 ng/mL HGF
Experimental: as §1

[9] = target: T2, human c-Met (HGFR), full length, on the …; experiment: flow cytometry, PC-3 cells, without HGF
Experimental: as §1

[10] = target: T2, human c-Met (HGFR), full length, on the …; experiment: flow cytometry, PC-3 cells pre-incubated with 50 ng/mL HGF
Experimental: as §1

[11] = target: T1, rhesus c-Met on 4MBr-5 cells; experiment: flow cytometry, 4MBr-5 cells, without HGF
Experimental: as §1

[12] = target: T2, human c-Met (HGFR), full length, on the …; experiment: flow cytometry, MKN45 cells, without HGF
Experimental: as §1

[13] = target: T2, human c-Met (HGFR), full length, on the …; experiment: flow cytometry, NCI-H596 cells, without HGF
Experimental: as §1

[14] = test system: c-Met-positive tumor cell lines MKN45, NCI-H441 and PC-3; experiment: Internalization by flow cytometry (AF488 quenching); format: cell-based, human
Experimental: Internalization of mAb3b was studied in human c-Met-positive tumor cell lines MKN45, NCI-H441 and PC-3. Cells (100,000 cells/well of a 96-well round bottomed microtiter plate) were incubated for 30 minutes at 4° C. with 50 μL 10 μg/mL mAb3b or appropriate non-binding control antibody. After a wash step with ice-cold complete growth medium (CGM) consisting of RPMI (Lonza) supplemented with 10% heat inactivated (HI) fetal bovine serum (FBS) (Gibco) and 80 U/mL penicillin/streptomycin (Lonza), the cells were incubated for 30 minutes at 4° C. with 50 μL Alexa Fluor 488 (AF488)-labeled Fab Fragment goat anti-human IgG (1:600 dilution) (Jackson Immunoresearch). After a wash step with ice-cold CGM, cells were resuspended in 150 μL pre-warmed CGM and transferred to polypropylene tubes, one for each time point (0 h, 0.5 h, 1 h, 3 h, 24 h) and placed into a 37° C. water bath to initiate internalization. […] Identical unquenched tubes were determined for the total fluorescence at each time point. Fluorescence intensities were determined by flow cytometry (BD FACSVerse, Franklin Lakes, NJ) and indicated as the Median Fluorescence Intensity (MFI). Internalization was quantified by calculating the percentage of internalization with the formula described. […]

| Molecule | Fold shift (HGF) [1] [fold] | EC50 [2] [µg/mL] | Fold shift (HGF) [3] [fold] | Fold shift (HGF) [4] [fold] | EC50 (read off the curve) [5] [µg/mL] | Kd [6] [nM] | Kd [7] [nM] | EC50 [8] [µg/mL] | EC50 [9] [µg/mL] | EC50 [10] [µg/mL] | EC50 [11] [µg/mL] | EC50 [12] [µg/mL] | EC50 [13] [µg/mL] | Internalization ([14]; 10 μg/mL, each of MKN45, NCI-H441, PC-3) | time of maximum internalization ([14]; each of the cell lines) [h] |
| --- | --- | --- | --- | --- | --- | --- | --- | --- | --- | --- | --- | --- | --- | --- | --- |
| B1 | 1.8 | 0.04 | 3.5 | 2 | ~0.06 | < 0.01 | < 0.01 | 0.07 | 0.03 | 0.06 | 0.02 | 0.06 | 0.02 | – | – |
| B2 | – | – | – | – | – | – | – | – | – | – | – | – | – | Efficient internalization | 24 |
